Experimental findings from PMC9907207 (2023) are described below.

The target of this experiment is SARS-CoV-2 RBD (residues 319-541), ancestral strain (SARS-CoV-2, UniProt P0DTC2 319-541). Briefly: BLI. On the technique in general: In BLI a coated tip is dipped into the sample, and binding shifts an interference pattern.

B1: GAR03, human IgG1 monoclonal antibody (antibody, V domains shown)
VH: QVQLVQSGAEVKKPGASVKVSCKASGYTFSSYDINWVRQAPGQGLEWMGWMSPNSGNTGYAQKFQGRVTMTRSTSMSTAYMELSSLRSEDTAVYFCARMSSSLTNYLDYWGQGTLVTVSS
VL: SYVLTQPPSVAVAPGQTARIRCGENDIGSKNVHWYQQKSGQAPVLVVYDDSDRPSGIPERFSGSNSGNTATLTISRVEAGDEADYYCQVWDSTGDHPDVVFGGGTKLTVL
modifications: biotin (EZ-Link NHS-PEG4-Biotin, 10:1) where loaded on the sensor
Molecule B1 displayed a Kd of 0.31 nM.

B2: GAR12, human IgG1 monoclonal antibody (antibody, V domains shown)
VH: EVQLVQSGGGLVQPGGSLRLSCAASGFTFSSYAMSWVRQAPGKGLEWVLSISGSGGSTYYADSVKGRFTISIDNSKKTVYLQMNSLRAEDTAVYYCAKSGEQQLVQAEYFHHWGQGTLVTVSS
VL: DIQMTQSPSTLSASVGDRVTITCRASQSIGRWLAWYQQKPGKAPKLLIYDASSLESGVPSRFSGSGFGTEFTLTISSLQPDDFATYYCQQCDSLLTFGGGTKLEIK
modifications: biotin (EZ-Link NHS-PEG4-Biotin, 10:1) where loaded on the sensor
In the case of B2, the Kd turned out to be 0.2 nM.

The term Kd denotes the free concentration of one partner at which half of the binding sites on the other are occupied at equilibrium, for simple one-to-one binding. Higher therefore signals lower affinity.
